One protein from publication PMC2826804 (Journal of molecular biology, 2009) can be followed below.

This data set concerns the molecule itself. The data set can be described thus: native gel or EMSA.

B1: GST-LARP6 fusion protein (La ribonucleoprotein domain family, member 6) (natural protein, human, UniProt Q9BRS8 1-491, looked up)
chain: MAQSGGEARPGPKTAVQIRVAIQEAEDVDELEDEEEGAETRGAGDPARYLSPGWGSASEEEPSRGHSGTTASGGENEREDLEQEWKPPDEELIKKLVDQIEFYFSDENLEKDAFLLKHVRRNKLGYVSVKLLTSFKKVKHLTRDWRTTAHALKYSVVLELNEDHRKVRRTTPVPLFPNENLPSKMLLVYDLYLSPKLWALATPQKNGRVQEKVMEHLLKLFGTFGVISSVRILKPGRELPPDIRRISSRYSQVGTQECAIVEFEEVEAAIKAHEFMITESQGKENMKAVLIGMKPPKKKPAKDKNHDEEPTASIHLNKSLNKRVEELQYMGDESSANSSSDPESNPTSPMAGRRHAATNKLSPSGHQNLFLSPNASPCTSPWSSPLAQRKGVSRKSPLAEEGRLNCSTSPEIFRKCMDYSSDSSVTPSGSPWVRRRRQAEMGTQEKSPGTSPLLSRKMQTADGLPVGVLRLPRGPDNTRGFHGHERSRACV
Regarding B1, the binding result is reported as “binds”.
